Laboratory results taken from patent EP4628095A1 (Xiamen University, dated 2025).

Key:
[1] = molecular target: T1, P2-4G-BGTSTIP; experiment: SPR (Biacore 8K), HEV-p239 coupled to CM5 chip (Fig. 12)
T1 construct: also called PA-4G-BGTSTIP; VHH-BGTSTIP

[2] = molecular target: P1-1G-RBD (insect cell expression system); experiment: SPR (Biacore 8K), HEV-p239 coupled to CM5 chip (Fig. 10A)
[3] = molecular target: P2-2C-RBD (insect cell expression system); experiment: as above

Measured: binding result

B1: HEV-p239 protein (other)
chain: IALTLFNLADTLLGGLPTELISSAGGQLFYSRPVVSANGEPTVKLYTSVENAQQDKGIAIPHDIDLGESRVVIQDYDNQHEQDRPTPSPAPSRPFSVLRANDVLWLSLTAAEYDQSTYGSSTGPVYVSDSVTLVNVATGAQAVARSLDWTKVTLDGRPLSTIQQYSKTFFVLPLRGKLSFWEAGTTKAGYPYNYNTTASDQLLVENAAGHRVAISTYTTSLGAGPVSISAVAVLAPHSV
notes: also called HEV-p239 particles; HEV particles
binds: all assays above
